Experimental findings from US20230066984A1, “New Carbon Glycoside Glycosyltransferase and Use Thereof” (CAS Center for Excellence in Molecular Plant Sciences, priority 2020, published 2023) are described below.

Sequences and labels used below:
B1: TaCGT1-D: C-glycosyltransferase from wheat, SEQ ID NO: 10 (protein, listed as Triticum aestivum)
chain: MPTSGDASGALPHPHVVLLPSAGMGHLVPFSRLAVSLSSPGHGCGVSVATVLPTVSSAESAHLDALFGACPAVRRLDFHLAPFDASEFPGADPFFLRFEAMRRSAPLLGPLLAGAGASALVTDIALASVVIPVARDLRLPCYVLFTASAAMLSLCVHFPAYLDANAGGPVGDVGIPGVYRVPKASIPQALHHPEHLFTQQFVANGRELAKADGLLVNSFDAFEPEAIAALRNGSVAAGFPPVFSVGPLAPVSFSASEPPENQADYMRWLEAQPARSVVYVSFGSRKAISKDQLRELAVGLEASGHRFLWVVKSTVVDRDDEAELSELLGEGFLERVQGRGMVTKGWVEQEEVLKQESIGLFISHCGWNSVTEAAANGLPVLAWPRFGDQRVNAGVVARSGLGVWEERWSWEGEEGTVSGHNIAEKVKTVMADKTVRNKAVSVQDAAAEAVADGGTSYRSLAQFVQRCRDLSVSK
B2: BdCGT1: C-glycosyltransferase from Brachypodium distachyo, SEQ ID NO: 16 (protein)
chain: MPTSGDGPTSQPHVVLLPSAGMGHLVPFSRLAVALSSAHGCDVSLVTVLPTVSSAESSHLEALFGAFPAVRRLEFHLADFDASEFPNADPFFLRFEAMRRSAPLLLGPLLARASATALVTDIALSSVVIPVAKQLRLPCYVLFTASAAMLSLCVHFPAYLDANGNGLVGDVDIPGVYQIPKASVPQALHDPKHLFTRQFVANGRELAKSDGVLVNSFDAFEPEAIAALREGAVSAAGFFPPVFSVGPLAPVSFPAGNNNRADYIQWLEAQPARSVVYVSFGSRKAVARDQLRELAAGLEASGHRFLWVVKSTVVDRDDDADLGELLGEGFLERVQGRGMVTKGWVEQEDVLKQESVGLFISHCGWNSVTEAAAGGLPVLAWPRFGDQRVNAGVVARSGLGVWVDSWSWEGEEGVVSGESIAEKVKAVMGDEIARNKAVSVRDAAAKAVADGGTSYRNLARFAQRCRDGRVRE
modifications: Brachypodium distachyon
B3: TaCGT2-D: C-glycosyltransferase from wheat, SEQ ID NO: 13 (protein, listed as Triticum aestivum)
chain: MASSSRDDRAGAAAPRPRIVLIPSAGMGHLAPFSRLAAALSSGHTCNVSLVTVLPTVSSAESGHLDALFAAFPAVRRLDFQLPPLDAPELSGADPFYVHYEATRRSARLLAPLLAAADASALVADISLASVLIPVASELRLPCYVFFTASATMFSFYAYYPTYLDAAGAGDADVPGVYRIPKSSFPQALHDRNNLFTQQFVANGQSLSKADGLLINTFDALEPEAVTALRQGSVVPGFPPVFNVGPLSPVSFPARASSDYSAWLDAQPERSVVYVSFGSRKALARDQLSELADGLEASGCRFLWVVKGTVVDKDDGAELSELLGEGFLQRVSGRALVTKAWVEQGEVLKHPAIGMFVSHCGWNSLTEAFASGVPVLAWPRFADQRVNAGIVARRGAGVWVERWSWEGDDGVVKGEEIAEKVKSVMADEMLRRSSTVVREAAMTAVAGGGTSYRSLAELVARCCDGSASNAPSEA
B4: SiCGT1: C-glycosyltransferase from millet, SEQ ID NO: 17 (protein, listed as Setaria italica)
chain: MPTSGDHSGARPHVVLLPSAGMGHLVPFGRLAVALSAGHGCDVSVAAVLPTVSSAEARHLEALFAAADPAVRRLDFRLAPFDASEFPGADPFFLRFEAMRRSAPLLGPLLATAGASAVVTDIVLASVVLPVARECGVPCYVLFTASAAMLAFCAHFPGYLDANSAAGRAGVVGDVDIPGVYRIPKSSVPQALHDPKHLFTQQFVANGRGLVDADGILVNTFDALEPEAVTALRKGKVVSSFPLVFAVGPLLPVMFPAKDPAGYMQWLDAQPARSVVYVSFGSRTAISPDQLLELAAGLEASGHRFLWVVKSTVVDRDDAGELGDLLGHGFLERVRGRALVTKGWVEQEEILQHGSVGLFVSHCGWNSVTEAAAFGVPVLAWPRFGDQRINAAVVTRGGLGAWEERWSWDGEEGLVSGEEVGEKIKAVMADETVAKKAAAVGDAAAAAATSKGGTSYRSLAEFVGRCRDAGSRQDR
B5: TaCGT2-A: C-glycosyltransferase from wheat, SEQ ID NO: 11 (protein, listed as Triticum aestivum)
chain: MASSSRDDRAGAAAPRPRIVLLPSAGMGHLAPFSRLAAALSSGHACDVSLVTVLPTVSSAESGQLDALFAAFPAVRRLDFHLPPLDAPELSGADPFYVHYEATRRSARLLAPLLAAADASALIADISLASVLIPVASELRLPCYVFFTASATMFSFYAYYPTYLDATGAGDADVPGVYRIPKSSFPQALHDRNNLFTQQFVANGRSLSKADGLLINTFDDLEPEAVTALRQGSVVPGFPPVFTVGPLSPVSFPARASSDYSAWLDAQPERSVVYVSFGSRKALARDQLSELADGLEASGCRFLWVVKGAVVDKDDGAELSELLGEGFLQRVSGRALVTKAWVEQGEVLKHPAIGMFVSHCGWNSLTEAFATGVPVLAWPRFADQRVNAGIVARCGAGVWVERWSWEGDDGVVKGEEIAEKVKSVMADEMLRRSSTVVREAATTAVAGGGTSYRSLAELVARCCHGSALQ
B6: ZmCGT4: C-glycosyltransferase from maize, SEQ ID NO: 14 (protein)
chain: MSSPAPSSASRSSHGSRGSPRIVLFPSAGMGHLVPFTRLAVALSAGHGCEISLLTALPTVSSAESRHIAALYAAFPAIRQLDLRFAPFDASSEFPGADPFYLRYEALRRCAPSLLGPLLAGAGASALVVDMALASVAIPVARELHVPCFVFFTASATMLSFKAYFPTYLDDVGAGHGVGDVDVPGVYRIPSSSVPQALHDPDNIFTRQFVANGRALATADGLLVNAFHAMEPEAVEALQGRFVLSVLPPVFAVGPLMPVNDLRETGEAAQKQGNYRAWLDEQPPRSVVYVSFGSRKALPKDQIKELAAGLEACGHRFLWVVKGAVVDRDDAGELSELLGEAFLRRVHGRGLVTKSWVEQEEVLRHPAVALFVSHCGWNSVTEAVSSGVPVLAWPRFADQRVNARVVVRCGLGVWADQWSWEGEEALVRAEEITALVMEAMEDDAMAVKAANVREAASRAVVDGGTSYRSLAAFVRRCTA
modifications: Zea mays
B7: ZmCGT5: C-glycosyltransferase from maize, SEQ ID NO: 15 (protein)
chain: B6 chain with A9P, G18S, E50D, L54V
modifications: Zea mays
B8: TaCGT2-B: C-glycosyltransferase from wheat, SEQ ID NO: 12 (protein, listed as Triticum aestivum)
chain: MASSPRDDRAGAAAPRPRIVLLPSASMGHLAPFSRLAAALSSGHACDVSLVTVLPTVSSAESGQLDALFAAFPAVRRLDFQLPPLDAPELSGADPFYVHYEATRRSARLLAPLLAAADASVLVADISLASVLIPVASELRLPCYVFFTASATMFSFYAYYPTYLDAAGAGDADVPGVYRIPKSSFPQALHDRNNLFTQQFVANGRSLSKADGLLINTFDALEPEAVTALRQGSVVPGCPPVFTVGPLSPVSFPARASADYSACLDAQPERSVVYVSFGSRKALARDQLSELADGLEASGCRFLWVVKGAVVDKDDGAELSELLGEGFLQRVSGRALVTKAWVEQGEVLKHPAIGMFVSHCGWDSLTEAFATGVPVLAWPRFADQRVNAGIVARCGAGVWVERWSWEGDEGVVKGEEIAEKVKSVMANEMLRRSSTMVREAAMTAVAGGGTSYRSLAELVARCCDGSASQ

Positions count from the first letter of the chain named.

The nature of this series: In vitro functional identification of C-glycosyltransferases by HPLC, phloretin as glycosyl receptor. The class given is biochemical. Particulars: 0.1 mM phloretin, 0.3 mM UDP glucose, crude enzyme, 37° C., 2 h, HPLC (FIG. 1A). The method, then: The recombinant plasmid was transformed into competent cells of Escherichia coli BL21 (DE3), and cultured overnight at 37° C. in solid LB medium (kanamycin 50 μg/mL). Single colony was transferred to a 2 mL LB liquid medium (containing 50 μg/ml kanamycin) and incubated overnight. The bacterial fluid was transferred to a new 100 ml LB liquid medium with antibiotics and incubated at 37° C. and 250 r/min until OD600 reached 0.5-0.6. The culture was cooled down to 16° C. in a water bath. Then inducer IPTG was added at a final concentration of 0.1 mM. The mixture was cultured at 16° C. for low temperature induction and 180 r/min for 20 h. The BL21(DE3) recombinant strain carrying the pET28a empty plasmid was used as a blank control, and the culture operation was the same as above. The bacteria were harvested by centrifugation (6000 r/min, 5 min), re-suspended in 1 mL of lysis buffer Buffer A (20 mM Tris-HCl, pH 8.0; 100 mM NaCl), and DNase was added to a final concentration of 5 μg/mL, Mg^2+ to a final concentration of 2 mM; protease inhibitor PMSF to a final concentration of 1 mM; the bacteria were incubated on ice for 30 min and then sonicated; refrigerated centrifugation (10,000 rpm, 30 min, 4° C.), filtered through a 0.2 µm filter membrane to obtain the supernatant crude enzyme solution, and added 20% glycerol for cryopreservation (−20° C.).
The in vitro enzyme catalytic assay system is 100 μL. The reaction system includes: 0.1 mM glycosyl receptor (phloretin or 2-hydroxynaringenin), 0.3 mM UDP glucose, 25 μL supernatant crude enzyme solution, and Buffer A is used to make up the volume to 100 μL, and react at 37° C. for 2 h. After the reaction was completed, an equal volume of methanol was added to terminate the reaction, and HPLC was used for product analysis. HPLC detection conditions: chromatographic column: reverse phase C18 column [SilGreen ODS column (ø 4.6×250 mm)], detection wavelength 280 nm; mobile phase: acetonitrile (0.1% formic acid)-water (0.1% formic acid) mixture gradient elution, with increased ratio from 5:95 to 100:0 within 0 to 20 min, and the flow rate was 1 mL/min.
Turning to B1, the “5′ C-glycosylation of 3′-glycosylated phloretin giving phloretin-3′,5′-C-diglucoside” value is listed as “can catalyze the glycosylation of the 3′-glycosylated phloretin at the 5′ position” and the “conversion of substrate phloretin to C-glycosylated product (Nothofagin)” value (from here on “conversion of substrate phloretin”) is “can convert the substrate phloretin to a product having a shorter retention time”.
With B2, the “conversion of substrate phloretin” value is recorded as “can convert the substrate phloretin to a product having a shorter retention time”.
Turning to B3, the “conversion of substrate phloretin” value was “can convert the substrate phloretin to a product having a shorter retention time”.
In the case of B4, the “5′ C-glycosylation of 3′-glycosylated phloretin giving phloretin-3′,5′-C-diglucoside” value is “can catalyze the glycosylation of the 3′-glycosylated phloretin at the 5′ position” and the “conversion of substrate phloretin” value is “can convert the substrate phloretin to a product having a shorter retention time”.
In the case of B5, the “conversion of substrate phloretin” value is listed as “can convert the substrate phloretin to a product having a shorter retention time”.
Still for that read-out and setting: then B6, with “can convert the substrate phloretin to a product having a shorter retention time”; and B7, with “can convert the substrate phloretin to a product having a shorter retention time”; and B8, with “can convert the substrate phloretin to a product having a shorter retention time”.
